Biological target: Mannose/N-acetylglucosamine (Man/GlcNAc) receptor on thioglycolate-elicited mouse peritoneal macrophages (mouse) (UniProt Q61830)
Assay: cell-based or functional assay

Mannose/N-acetylglucosamine (Man/GlcNAc) receptor on thioglycolate-elicited mouse peritoneal macrophages (mouse), sequence (Q61830 20-1456): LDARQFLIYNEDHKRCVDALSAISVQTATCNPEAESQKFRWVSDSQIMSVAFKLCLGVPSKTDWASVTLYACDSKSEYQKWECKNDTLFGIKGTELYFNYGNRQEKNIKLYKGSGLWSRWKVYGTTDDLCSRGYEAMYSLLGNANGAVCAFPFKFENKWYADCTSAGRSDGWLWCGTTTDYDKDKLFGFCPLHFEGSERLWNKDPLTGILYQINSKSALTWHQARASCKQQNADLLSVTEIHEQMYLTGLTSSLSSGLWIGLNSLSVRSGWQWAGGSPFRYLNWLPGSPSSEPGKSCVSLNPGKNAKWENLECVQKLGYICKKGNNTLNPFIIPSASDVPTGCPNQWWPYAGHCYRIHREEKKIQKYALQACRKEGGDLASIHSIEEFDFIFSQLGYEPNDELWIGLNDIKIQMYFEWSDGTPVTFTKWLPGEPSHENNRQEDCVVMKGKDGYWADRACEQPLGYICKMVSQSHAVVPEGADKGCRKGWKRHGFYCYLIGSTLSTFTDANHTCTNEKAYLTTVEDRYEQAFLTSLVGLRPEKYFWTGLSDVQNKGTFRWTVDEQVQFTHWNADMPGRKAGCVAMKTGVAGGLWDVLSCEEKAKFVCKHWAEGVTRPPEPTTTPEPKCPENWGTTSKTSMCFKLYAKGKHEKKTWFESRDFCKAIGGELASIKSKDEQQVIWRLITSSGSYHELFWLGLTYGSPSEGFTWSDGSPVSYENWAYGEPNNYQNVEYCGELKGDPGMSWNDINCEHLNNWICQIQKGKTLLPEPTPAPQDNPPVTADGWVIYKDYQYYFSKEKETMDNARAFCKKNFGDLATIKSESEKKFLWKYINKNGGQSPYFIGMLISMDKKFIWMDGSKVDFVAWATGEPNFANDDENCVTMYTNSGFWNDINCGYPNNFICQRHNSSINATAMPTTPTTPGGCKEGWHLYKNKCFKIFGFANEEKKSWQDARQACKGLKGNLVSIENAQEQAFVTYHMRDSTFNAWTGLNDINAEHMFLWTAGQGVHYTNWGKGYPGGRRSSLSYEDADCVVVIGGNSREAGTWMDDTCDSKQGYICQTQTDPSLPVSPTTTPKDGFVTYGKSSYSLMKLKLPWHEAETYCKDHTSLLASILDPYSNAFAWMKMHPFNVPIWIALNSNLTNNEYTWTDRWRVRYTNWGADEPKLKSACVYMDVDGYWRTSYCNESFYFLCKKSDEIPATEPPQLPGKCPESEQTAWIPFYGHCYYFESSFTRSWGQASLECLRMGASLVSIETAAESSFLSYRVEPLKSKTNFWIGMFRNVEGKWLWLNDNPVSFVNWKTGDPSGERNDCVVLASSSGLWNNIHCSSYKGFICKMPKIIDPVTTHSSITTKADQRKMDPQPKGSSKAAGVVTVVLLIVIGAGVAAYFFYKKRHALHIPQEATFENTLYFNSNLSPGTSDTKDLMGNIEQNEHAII

## Cerezyme (commercial recombinant human GCD produced in mammalian CHO cells) (from UniProt P04062 40-536) (enzyme)
  percent of specific activity from total activity, inhibited by 4 mg/ml mannan: 65%

From US20100196345A1
